# Measurements from patent EP4763862A1 (Beijing Tide Pharmaceutical Co., Ltd., dated 2026).
# Changes are numbered by the printed parent chain.
# T1: mouse B7-H3 on CHO-mouse B7-H3 cells (mouse, UniProt Q8VE98 29-316)
# T1 construct: whole, on cells; also called CHO-S-mouse-B7-H3; murine B7-H3
# T1 sequence (looked up): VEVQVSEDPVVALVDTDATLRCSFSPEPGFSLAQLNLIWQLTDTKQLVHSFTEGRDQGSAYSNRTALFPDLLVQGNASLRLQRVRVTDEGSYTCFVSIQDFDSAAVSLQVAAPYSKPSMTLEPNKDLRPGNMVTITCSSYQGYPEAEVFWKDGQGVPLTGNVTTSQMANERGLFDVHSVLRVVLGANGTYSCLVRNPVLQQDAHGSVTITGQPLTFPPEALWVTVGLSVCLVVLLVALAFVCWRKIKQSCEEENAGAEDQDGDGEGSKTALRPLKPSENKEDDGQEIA
# T2: B7-H3 on NCI-H446 cells (UniProt Q5ZPR3 29-534)
# T2 construct: whole, on cells
# T2 sequence (looked up): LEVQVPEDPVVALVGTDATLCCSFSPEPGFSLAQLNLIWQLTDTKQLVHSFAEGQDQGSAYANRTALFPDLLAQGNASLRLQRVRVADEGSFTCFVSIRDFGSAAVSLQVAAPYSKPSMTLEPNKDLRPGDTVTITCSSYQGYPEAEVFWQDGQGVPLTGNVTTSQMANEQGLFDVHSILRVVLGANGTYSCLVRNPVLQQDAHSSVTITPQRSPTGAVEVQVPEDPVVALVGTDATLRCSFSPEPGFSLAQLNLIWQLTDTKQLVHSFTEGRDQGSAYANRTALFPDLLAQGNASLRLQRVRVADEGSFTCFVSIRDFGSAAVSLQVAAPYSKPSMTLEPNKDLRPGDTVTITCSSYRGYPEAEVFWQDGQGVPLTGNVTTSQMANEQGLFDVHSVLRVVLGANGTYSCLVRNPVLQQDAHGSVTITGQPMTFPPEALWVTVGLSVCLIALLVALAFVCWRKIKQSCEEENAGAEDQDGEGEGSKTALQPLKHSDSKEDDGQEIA
# B1: cAb1-uIgG1K (antibody)
# heavy: not shown
# light: DVLMTQTPLSLPVSLGDQVSISCRASQSLANSYGKTYLSWYLHKPGQSPQLLIYGISNRFSGVPDRFSGSGSGTDFTLKISTIKPEDLGMYYCLHGTHQPLTFGAGTKLELKRTVAAPSVFIFPPSDEQLKSGTASVVCLLNNFYPREAKVQWKVDNALQSGNSQESVTEQDSKDSTYSLSSTLTLSKADYEKHKVYACEVTHQGLSSPVTKSFNRGEC
# notes: Parental chimeric antibody of the cAb1 series; also called cAb1-ulgG1K
# B2: 28-B5-B6-C6 (antibody, human IgG1, kappa, V domains shown)
# VH: EVKLQESGPGLVKPSQSLSLTCTVTGYSITSDYAWNWIRQFPGNILEWMGYISYSGSASYNPSLQSRISVTRDTSKNQFFLQLNSVTTEDTATYYCVRSLGRRWYFGFWGAGTTVTVSS
# VL: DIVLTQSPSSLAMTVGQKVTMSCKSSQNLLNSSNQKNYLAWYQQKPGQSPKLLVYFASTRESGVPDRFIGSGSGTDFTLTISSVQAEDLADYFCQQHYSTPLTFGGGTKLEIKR
# B3: 16-D10-E1-E1 (antibody, human IgG1, kappa, V domains shown)
# VH: EVQLQQSGPELVRPGVSVKISCKGSGYTFTDYAMHWVKQSHAKSLEWIGVINTYSGNTYYSQKFKGKATMTVDKSSSTAYMELARLTSEDSAIYYCARGAGYFPYWYFDVWGAGTTVTVSS
# VL: DIQMIQSPSYLAASPGETITINCRASKSISKYLAWYQEKPGKTNKLLIYSGSTLQSGIPSRFSGSGSGTDFTLTISSLEPEDFAMYYCQQHYEYPYTFGGGTKLEIKR
# B4: 9-F1-D9-F10 (antibody, human IgG1, kappa, V domains shown)
# VH: EVQLVESGGGLVQPGGSLRVSCATSGFTFSDYYMSWVRQPPGKALEWLGFIRNKINGYTTEYSASVKGRFTISRDNSQSILYLQMNTLRAEDSATYYCTRDSSQRPFAYWGQGTLVTVSA
# VL: DIVMTQSPSSLSVSAGEKVTMTCKSSQSLLNSRSQKNFLAWYQQKPGQPPKLLIYGASTRESGVPDRFTGSGSGTDFTLTISNVQAEDLAVYYCQNDLTYPLTFGAGTKLELKR
# B5: 29-A9-G8-F6 (antibody, human IgG1, kappa, V domains shown)
# VH: EVQLQQSGPELVRPGVSVKISCKGSGYTFTDYSMHWVKQSHAKSLEWIGVINTSSGNTYYNLKFKGKATMTVDKSSSTAYMELARLTSEDSAIYYCSKYYGSSFHWYFDVWGAGTTVTVSS
# VL: DIVMTQSPVIMSASPGEKVTMTCSASSSVSYMHWYQQKSSTSPKLWIYDTSKLASGVPGRFSGTGSGKSHSLTISSMEAEDVATYYCFQGSGYPLTFGSGTKLEIKR
# B6: 19-F1-E9-B11 (antibody, human IgG1, kappa, V domains shown)
# VH: EVQLQQSGPSLVKPSQTLSLTCSVTGGSITSFYWNWIRKFPGNKLEYMGYISSSGSTYYNPSLKSRISITRDTSKNQSYLQLNSVTAEDTATYYCARGGVHYGFGDYWGQGTSVTVSS
# VL: DIVMTQSAPSVPVTPGESVSISCRSSKSLLHSNGNTYLYWFLQRPGQSPQLLIYRMSNLASGVPDRFSGSGSGTAFTLRISRVEAEDVGVYYCMQHLEYPLTFGAGTKLELKR
# notes: also called CB11
# B7: 48-B4-F4-E4 (antibody, human IgG1, kappa)
# heavy: not shown
# light: B1 light
# notes: also called CE4
# B8: 9-A2-G3-H11 (antibody, human IgG1, kappa, V domains shown)
# VH: EVQLQQSGPELVRPGESVKISCKGSGYTFTDYAIHWVKQSHAKSLEWIGVISTYYDNTYYNQKFKGRATMTVDKSSSTAYMELARLTSEDSAIYYCARGYGSSFNWYFDVWGAGTTVTVSS
# VL: DIVMTQSPSSLAVSAGEKVTMSCKSSQSLLNSRTRKNYLAWYQQKPGQSPKLLIYWASTRESGVPDRFTGSGSGTDFTLTITSVQAEDLAVYYCKQSYNLYTFGGGTKLEIKR
# B9: cAb2-z2-p6 (antibody, human IgG1, kappa, V domains shown)
# VH: QVQLVESGAVVKKPGASVKVSCKASGYTLSDFNMDWVRQAPGKSLEWMGDINPNYDTITYNQKFRGRVTLTVDRSINTAYMELSRLRSDDTAVYYCARGELGRYFYVWGAGTMVTVSS
# VL: DIQLTQPPSSLSASVGDRVTITCRASENVYSYLAWYQQKPGRSPQLLVYNAKTLQEGVPSRFSGSGSGTQFTLTISSLQPEDFADYYCQHHYGTPWTFGGGTKVEIKR
# notes: Humanized from 28-B1-E8-C11; Human IgG1 / kappa
# B10: cAb2-z3-p6 (antibody, human IgG1, kappa, V domains shown)
# VH: B9 VH
# VL: B9 VL with S10F, Q70E
# notes: as for B9
# B11: cAb2-z5-p6 (antibody, human IgG1, kappa, V domains shown)
# VH: B9 VH
# VL: B9 VL with Q55P, Q89S
# notes: as for B9
# B12: cAb2-z4-p6 (antibody, human IgG1, kappa, V domains shown)
# VH: B9 VH
# VL: B9 VL with F83V
# notes: as for B9
# B13: 28-B1-E8-C11 (antibody, human IgG1, kappa, V domains shown)
# VH: EVKLVESGAVLVKPGASVKISCKASGYTLSDFNMDWVKQSQGKSLEWVGDINPNYDTITYNQKFRGKATLTVDRSSNTAYMELRSLTSEDSAVYYCARGELGRYFYVWGAGTTVTVSS
# VL: DIQLTQPPASLSASVGETVTITCRASENVYSYLAWYRQKQGRSPQLLVYNAKTLPEGVPSRFSGSGSGTQFSLKINSLQTEDLGDYYCQHHYGTPWTFGGGTKLEIKR
# notes: parent of the cAb2 humanized antibodies; also called CC11
# B14: cAb2-z0-p9 (antibody, human IgG1, kappa, V domains shown)
# VH: B13 VH
# VL: B9 VL with F83V
# notes: as for B9
# B15: cAb2-z1-p9 (antibody, human IgG1, kappa, V domains shown)
# VH: B13 VH
# VL: B9 VL with Q55P, Q89S
# notes: Humanized from 28-B1-E8-C11; Human IgG1 / kappa; also called cAb2-zl-p9
# Target: T3, B7-H3 Cyno-His (cynomolgus monkey)
# T3 construct: also called cynomolgus monkey B7-H3
# Assay: SPR, Biacore 8K, antibody captured by anti-human IgG Fc on CM5, B7-H3 Cyno-His as analyte, 1:1 model
Kd,koff,kon,Binder
3.35 nM,5.47e-05 s⁻¹,16300 M⁻¹ s⁻¹,B1

# Target: T1, mouse B7-H3 on CHO-mouse B7-H3 cells
# Assay: flow cytometry on CHO-mouse B7-H3 cells, antibody 10 µg/ml
row,binding result,Binder
1,binds,B2
2,binds,B3
3,binds,B4
4,binds,B5
5,binds,B6
6,binds,B7
7,binds,B8

# Target: T2, B7-H3 on NCI-H446 cells
# Assay: flow cytometry on NCI-H446 cells, goat anti-human Fc secondary
row,EC50,Binder
1,3.45 nM,B1
2,1.36 nM,B9
3,1.06 nM,B10
4,3.92 nM,B11
5,0.552 nM,B12
6,4.45 nM,B13
7,1.15 nM,B14
8,2.22 nM,B15
